{"source": "the domain aggregation screens of Martell et al. (2025)"}
{"experiment": "soluble fraction after stress (log2 fold change); higher = more stays soluble; pooled small domains, quantitative proteomics", "conditions": "stress: pH 4", "procedure,_shortened": "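Small protein domains from pooled custom libraries were exposed to pH 4, then quantified with high-throughput quantitative proteomics. The fold change in how much of each domain remains soluble is read as aggregation propensity. It is given as log2, with higher values meaning more stayed soluble.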"}
{"sequence": "HMYEENFSKIKNDISTIFKRHKISFTNNFISHLSSVFNTDSLTNKMELEKLDSFLINNKKVTENELLKFII", "soluble fraction (log2)": 0.0436}
{"sequence": "HMYEINEIIRERRLKKGLTQAQVAKYLGVSAPAVNKWEKGTTYPDLVLLPALARLLDTDLTTLLSF", "soluble fraction (log2)": -1.02}
{"sequence": "HMYEVVPNMRGLTYNQATAALAAAGLKVELSDSIYDEHTQPGTVLDQSPRPNTKVKPNRVVYLTVNAF", "soluble fraction (log2)": -0.0904}
{"sequence": "HMYFDDEELDTYKGRASNAYSPDETAQFEEVMTTMRPDEVAAWLRSLQLRGINLPDELKDEAIMLVE", "soluble fraction (log2)": -1.22}
{"sequence": "HMYFGNSLFQARKRSGLSQEGVAEKLGVSRQTVSKWETGETVPDIYQSKKMARLYGVSLDEL", "soluble fraction (log2)": 0.217}
{"sequence": "HMYFNTADLKADSIHYGSTEQSVIKILGEPEYRETFVDNNVSYELFSYKGNLLLSFVENSLVSL", "soluble fraction (log2)": -0.0269}
{"sequence": "HMYGTERILAQLANYGIPNKLAFQIQDFYKEETLQIVEQQPYRLVEDIQGMGFKIADQLAEELGI", "soluble fraction (log2)": -1.35}
{"sequence": "HMYIDLHEIWKSLTDEEQTVVKLLETEPAHVDTLIENSQIPASRILATLTLLEVRGIVKRLPGRMFSLAD", "soluble fraction (log2)": -0.571}
{"sequence": "HMYIENIGDYLKSHDIKPSYQRIKVFEYLMQHKNHPTVDMIYKSLVDEIPTLSKTTVYNTLNLFIEKQI", "soluble fraction (log2)": 0.0963}
{"sequence": "HMYITGAVIRKLREKNNITQLQLAERLRVSDKTISKWETGKGYPDITLLEPIAKTFSVSVTELISGDI", "soluble fraction (log2)": -0.84}
{"sequence": "HMYKNLRAFRESLGMTQKDFAASLSIGLSTYNGYEVGAREPKSDFWIAVARKYGVTIDYLMGFSDDPHK", "soluble fraction (log2)": 0.195}
{"sequence": "HMYKSSRASKSEVNKFLKFIIQSLDKRGFLQPGHKRQSMIRNIENIFYRTNLSDQEIRILLGIFSTLNK", "soluble fraction (log2)": -0.405}
{"sequence": "HMYLELVTKEGGSFDEPDYWGRRKLAYEIAGKTEGNYVVVKYTAEPATSDELDRVLNLNESVIRTKILRK", "soluble fraction (log2)": -0.461}
{"sequence": "HMYLHSEFSPVTGQELHMKYDDSSTEEDPVMLVEGKDIQGNDFVKKIHLNDVDPENATPAEMTALRVHL", "soluble fraction (log2)": -0.507}
{"sequence": "HMYLLPVTSTELKGNYPNPFNPETTISFDLKDAERVNLSIYNLKGQLVRTLVNSDLPIGRHRLIWDGNDS", "soluble fraction (log2)": -0.609}
{"sequence": "HMYLPGERMRIKITALGSNPKQGVGYLPDGMMVVVDEAATLVGRFVEIEFVKFLQTNSGRMMFAKVAT", "soluble fraction (log2)": -0.02}
{"sequence": "HMYMKGKVKWFDSKKGYGFITSENGKEIFVHFSGIAAKGFKSLNEGQTVEFEVANGAKGEQAVNVTV", "soluble fraction (log2)": 0.178}
{"sequence": "HMYMKTITEQFGERLKKIRTQKSLSQEQLSYLADIDRSYISDVERGARNISLENIYKLASALNIPPYLVLL", "soluble fraction (log2)": -0.344}
{"sequence": "HMYMLYQQLADSLRDKIYEGTYTFGDKIPSERTLAATFGISHLTVRKALAILEEEGLLDRRQGNGTFVRV", "soluble fraction (log2)": -0.693}
{"sequence": "HMYNIDSFMTKNYPTMERFTLSDVQKKYKTTFGLFVKQDELASMIEKTGRFNITSSKNVKYVNR", "soluble fraction (log2)": 0.313}
{"sequence": "HMYNPAYDAEIKVILELARHGYWEEARERADELLKAAPDDTGVKRIQTWVRQQEQRMREQAIEDSIRA", "soluble fraction (log2)": -0.206}
{"sequence": "HMYPEETVNKILDVSMQLFLEKGYEHTSIQDIVNHLGGLSKGAIYHHFKSKEDILDGVMNKLYQNN", "soluble fraction (log2)": -0.941}
{"sequence": "HMYPGQILEIYLDEIKRLYLNGLSSADIFAEIKEGSIPSVKKAIRSMKDGSAPVKITEAEESTRIAPS", "soluble fraction (log2)": -0.785}
{"sequence": "HMYPTPAAANRHFLDKWGHQEAYLGKVLNSRSRASEILNGKRPLSLSDLRTLRDNLGIPVDLLL", "soluble fraction (log2)": -0.421}
{"sequence": "HMYQKERDKEISEIETFLKKITNANGTRAYSDESIADMSYVELLNLYEGITSKLTEEEIENI", "soluble fraction (log2)": -0.644}
{"sequence": "HMYQPLYEQIKRMLTQSLIDGEWKAGEMIPSEMELAARFKVSQGTVRKAIDELVSENILMRRQGKGTFVH", "soluble fraction (log2)": 0.22}
{"sequence": "HMYSDDNKSILNLIDNLFNKENIKIDINAKKLLSNYLGVDRLVTKGEIEKAILFAGTKKHLSIEDISAFLS", "soluble fraction (log2)": -0.992}
{"sequence": "HMYSFPHQLLKLRTEKQLSQAELATRLFVSRQAVSKWENGDAEPSIDKLILLAKVFNVSLDRLILGT", "soluble fraction (log2)": 0.18}
{"sequence": "HMYSIDNPPDWLKNLPKGAIRIGVEVFNQVLSKADDEDRARMAAWSAIKAKYEKADDGQWQPKAA", "soluble fraction (log2)": 0.221}
{"sequence": "HMYSNDEIVNYLKNYIFDNFNLNELSDEELEEKIAELVQQQFAGQLLSLDEKVKLVNQVYSSIR", "soluble fraction (log2)": -0.139}
{"sequence": "HMYSRQRDLILKALRENVVHPTADFIYTVLKEKEPNLSLATVYRNLNLLANEGIIRKIEGLDGVAHFDH", "soluble fraction (log2)": 0.059}
{"sequence": "HMYSVVGKKGIVIEDINYSTGTGQIKSEGEVWSAKTNEQINIPKGTEIEIESIDGVKVIVKPL", "soluble fraction (log2)": 0.221}
{"sequence": "HMYTDGVPALTDLKKESKPGRRQYVGVEDIPKVLGGLGITILSTSKGLMSGHQAKKKNIGGELIASV", "soluble fraction (log2)": -0.0153}
{"sequence": "HMYTEIDDVKDLLSKIPSVNKLTTADRGMVQAARNAYDALDEDQKLYITIADVEKFNAAVEWMEEH", "soluble fraction (log2)": -0.523}
{"sequence": "HMYTVRDGDTVFGILNRFGVSLDELLSLNPELSNGLKAGMVLKIK", "soluble fraction (log2)": -1.13}
{"sequence": "HMYVADVVGMGIKDALYILENQGLRVVFTGKGVVKNQSIAVGEKIIKGEKIVLML", "soluble fraction (log2)": -0.723}
{"sequence": "HMYVQDPVDRLVLESALRLLREQEREIIFLHLVAGLKHREIAGLLHLPLSTVLSGYRRALTKMKSYLEE", "soluble fraction (log2)": 0.0239}
{"sequence": "HMYVTGETIRHLRTQRRMTQEQLAETLGVTGKAVSKWETGRGFPDMSLLEPLARALRISVPELLSGE", "soluble fraction (log2)": 0.0292}
